From the RNAGym collection of RNA variant scans (doi:10.1093/molbev/msab373)

B1: Azoarcus group I ribozyme (parent)
chain: GUGCCUUGCGCCGGGAAACCACGCAAGGGAUGGUGUCAAAUUCGGCGAAACCUAAGCGCCCGCCCGGGCGUAUGGCAACGCCGAGCCAAGCUUCGGCGCCUGCGCCGAUGAAGGUGUAGAGACUAGACGGCACCCACCUAAGGCAAACGCUAUGGUGAAGGCAUAGUCCAGGGAGUGGCGAAAGUCACACAAACCGG

Variants of: B1
Experiment: reverse-splicing fitness (ratio to wild type); higher = more active; in vitro selection; Mg2+ level not given
How it was run: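 An in vitro group I ribozyme library with randomized positions was T7-transcribed and gel-purified. In triplicate, 10 pmol RNA in EPPS pH 7.5 was reacted with 50 pmoles of a 30-nt RNA substrate for 1 h at 37 °C across several added MgCl2 levels (1–48 mM), then stopped with EDTA. Products were reverse transcribed from a substrate-complementary primer, PCR-amplified and sequenced (HiSeq 4000). Fitness is a variant's read proportion after selection over that before, normalised to wild type.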

Variant	reverse-splicing fitness
C82G A111C A120C A145G U176C	0.0314
C82G A111C A120C A145G U176G	0.00761
C82G A111C A120C A145U C150A C169U U176C	0.0133
C82G A111C A120C A145U C150A C169U U176A	0.0126
C82G A111C A120C A145U C150A C169U U176G	0.00817
C82G A111C A120G A145G C169G U176C	0.0288
C82G A111C A120G A145G C169G U176A	0.0188
C82G A111C A120G A145G C169G U176G	0.00514
C82G A111C A120G A145G C150A U176A	0.00974
C82G A111C A120G A145G C150A U176C	0.0185
C82G A111C A120G A145G C150A U176G	0.007
C82G A111C A120C A145U C150G C169U U176G	0.0068
C82G A111C A120C A145U C150G C169U U176A	0.00736
C82G A111C A120C A145U C150G C169U U176C	0.0121
C82G A111C A120G A145C C150U C169U U176G	0.0048
C82G A111C A120G A145C C150U C169U U176C	0.0119
C82G A111C A120G A145C C150U C169U U176A	0.0147
C82G A111C A120C C150A C169G	0.00905
C82G A111C A120C C150A C169U	0.0123
C82G A111C A120C C150A C169A	0.0108
C82G A111C A120G A145G C169U U176A	0.0161

Variant	reverse-splicing fitness
C82G A111C A120G A145G C169U U176G	0.00423
C82G A111C A120G A145G C169U U176C	0.0145
C82G A111C A120G A145C C150U C169U	0.00687
C82G A111C A120G A145C C150U C169G	0.00885
C82G A111C A120G A145C C150U C169A	0.00816
C82G A111C A120G A145G C150U C169A U176G	0.00695
C82G A111C A120G A145G C150U C169A U176A	0.0152
C82G A111C A120G A145G C150U C169A U176C	0.0147
C82G A111C A120C U176G	0.00944
C82G A111C A120C U176C	0.0268
C82G A111C A120C U176A	0.018
C82G A111C A120G A145G C150U C169G U176C	0.0175
C82G A111C A120G A145G C150U C169G U176A	0.0133
C82G A111C A120G A145G C150U C169G U176G	0.00501
C82G A111C A120G A145U C150G C169A U176G	0.00496
C82G A111C A120G A145U C150G C169A U176A	0.00957
C82G A111C A120G A145U C150G C169A U176C	0.0101
C82G A111C A120C A145G C169G U176A	0.0188
C82G A111C A120C A145G C169G U176G	0.00618
C82G A111C A120C A145G C169G U176C	0.0253
C82G A111C A120G A145U C150G C169G U176A	0.0071

Variant	reverse-splicing fitness
C82G A111C A120C A145G C150U U176A	0.0138
C82G A111C A120C A145G C150U U176G	0.00788
C82G A111C A120C A145G C150U U176C	0.0215
C82G A111C A120C C150A C169G U176C	0.0225
C82G A111C A120C C150A C169G U176G	0.00766
C82G A111C A120C C150A C169G U176A	0.0183
C82G A111C A120C A145G C150U C169G U176G	0.00699
C82G A111C A120C A145G C150U C169G U176C	0.0162
C82G A111C A120C A145G C150U C169G U176A	0.0122
C82G A111C A120C A145U C150G C169U	0.00897
C82G A111C A120C A145U C150G C169A	0.00941
C82G A111C A120C A145U C150G C169G	0.00765
C82G A111C A120G A145G C150G U176G	0.00597
C82G A111C A120G A145G C150G U176C	0.0113
C82G A111C A120G A145G C150G U176A	0.00732
C82G A111C A120C C150U U176G	0.00767
C82G A111C A120C C150U U176C	0.0226
C82G A111C A120C C150U U176A	0.0157
C82G A111C A120C A145U C150A U176C	0.0153
C82G A111C A120C A145U C150A U176A	0.0102
C82G A111C A120C A145U C150A U176G	0.00601

Variant	reverse-splicing fitness
C82G A111C A120G A145C C150U U176A	0.0103
C82G A111C A120G A145C C150U U176G	0.00478
C82G A111C A120G A145C C150U U176C	0.0125
C82G A111C A120C C150G C169G U176G	0.00663
C82G A111C A120C C150G C169G U176C	0.00766
C82G A111C A120C C150G C169G U176A	0.00891
C82G A111C A120G A145C	0.013
C82G A111C A120G A145G	0.014
C82G A111C A120G A145U	0.0164
C82G A111C A120G A145G C169G	0.0143
C82G A111C A120G A145G C169U	0.0104
C82G A111C A120G A145G C169A	0.0114
C82G A111C A120G A145C C150G U176A	0.00787
C82G A111C A120G A145C C150G U176G	0.00269
C82G A111C A120G A145C C150G U176C	0.0129
C82G A111C A120G A145C C150A C169A	0.00918
C82G A111C A120G A145C C150A C169U	0.00679
C82G A111C A120G A145C C150A C169G	0.00794
C82G A111C A120C A145G C150U C169A U176C	0.0142
C82G A111C A120C A145G C150U C169A U176G	0.00796
C82G A111C A120C A145G C150U C169A U176A	0.0153
